Results: publication PMC3343632 (Nature cell biology, 2012)

Target: the molecule itself
Experiment: single-molecule TIRF microscopy with stepwise photobleaching

B1: GFP-tagged tailless kinesin-1 motor, taillessKhc::GFP (1-849) (domain or fragment, UniProt P17210 1-849, looked up)
chain: MSAEREIPAEDSIKVVCRFRPLNDSEEKAGSKFVVKFPNNVEENCISIAGKVYLFDKVFKPNASQEKVYNEAAKSIVTDVLAGYNGTIFAYGQTSSGKTHTMEGVIGDSVKQGIIPRIVNDIFNHIYAMEVNLEFHIKVSYYEIYMDKIRDLLDVSKVNLSVHEDKNRVPYVKGATERFVSSPEDVFEVIEEGKSNRHIAVTNMNEHSSRSHSVFLINVKQENLENQKKLSGKLYLVDLAGSEKVSKTGAEGTVLDEAKNINKSLSALGNVISALADGNKTHIPYRDSKLTRILQESLGGNARTTIVICCSPASFNESETKSTLDFGRRAKTVKNVVCVNEELTAEEWKRRYEKEKEKNARLKGKVEKLEIELARWRAGETVKAEEQINMEDLMEASTPNLEVEAAQTAAAEAALAAQRTALANMSASVAVNEQARLATECERLYQQLDDKDEEINQQSQYAEQLKEQVMEQEELIANARREYETLQSEMARIQQENESAKEEVKEVLQALEELAVNYDQKSQEIDNKNKDIDALNEELQQKQSVFNAASTELQQLKDMSSHQKKRITEMLTNLLRDLGEVGQAIAPGESSIDLKMSALAGTDASKVEEDFTMARLFISKMKTEAKNIAQRCSNMETQQADSNKKISEYEKDLGEYRLLISQHEARMKSLQESMREAENKKRTLEEQIDSLREECAKLKAAEHVSAVNAEEKQRAEELRSMFDSQMDELREAHTRQVSELRDEIAAKQHEMDEMKDVHQKLLLAHQQMTADYEKVRQEDAEKSSELQNIILTNERREQARKDLKGLEDTVAKELQTLHNLRKLFVQDLQQRIRKNVVNEESEEDGGSLA
- stoichiometry N: 2
